From article PMC9886862

Target: HoxG, large subunit of the membrane-bound [NiFe]-hydrogenase (MBH) from Cupriavidus necator, isolated, with N-terminal Strep-tag II (Cupriavidus necator) (UniProt P31891)
Experiment: SEC; HoxG at higher concentrations (series 0.5, 2.5, 12.5 and 60 mg/ml); Superdex 200 Increase 10/300 GL; 50 mM KiPO4, 150 mM NaCl, pH 7.4, 4 °C; sizes from a calibration curve of reference proteins

- stoichiometry N: 2
Substance: HoxG, large subunit of the membrane-bound [NiFe]-hydrogenase (MBH) from Cupriavidus necator, isolated, with N-terminal Strep-tag II (from UniProt P31891 1-618) (natural protein)
